Experiment: soluble on expression in E. coli; label from the status in PepcDB or PDB records

Row | Sequence | soluble on expression in E. coli
1 | MLSRFSGKVALVTGSSNGIGRAAAVLFAKDGAKVTVTGRNAERLEETRQEILKSGVPESHVLSVATDLAAEKGQDELVNSTIQKFGRLDILVNNAGAAFNDDQGRVGVDQDVSVYDKIMQINMRSVVTLTQKAKEHLVKAKGEIVNVSSIAGTAHAQPGVMYYAMSKSALDQFTRCAAIDLIQYGVRVNSVSPGGVTTGFGEAMGMPSGAFEEMMKFMESRKECIPSGAVAKPIDIANIIAFLADRKLSSYIIGQSIVADGGSTLVLGMNAHNWADLMKQS | not soluble
2 | MGSDKIHHHHHHENLYFQGMSRKVILTCAVTGNAPFNPKHPSMPITPAQIADACVEAAKAGASVAHIHVRDPKTGGGSRDPVLFKEVVDRVRSSGTDIVLNLTCGLGAFLLPDPEDESKALPESDVVPVAERVKHLEDCLPEIASLDITTGNQVEGKLEFVYLNTTRTLRAMARRFQELGIKPELEVFSPGDILFGKQLIEEGLIDGVPLFQMVLGVLWGAPASTETMIYQRNLIPANAQWAAFGIGRDQMPMMAQAALLGGNVRVGLEDNLYLSRGVFATNGQLVERARTVIEHLGMSVATPDEARDIMGLSRPA | soluble
3 | MGSDKIHHHHHHQVSGDTVKIGFITDLSGLYADIDGQGGVEAIKMAIEDAGGKVLGKPIELVTADHQNKADIAASKAREWMDQQGLDVLIGGTNSGTALAMNKVAAEKKRVYINNGAGTARLTNEECSPYTVHYAYDTVALAKGTGSAVVKQGGKSWFFLTADYAFGHSLESDTAAVVKANGGTVLGSVRHPLSASDFSSFLLQAQASKAQILGLANAGGDTINSIKAAKEFGITKTMKIAGLLMFINDIHSLGLKNTEGLLMTDSWYWDMNDDTRKFANRYFSKMKKMPSSLQAADYSAVSTYLKAVAAAKTDDPDKVMAELKKTKINDFYTKGYIRQDGRGIHDMYLMQVKSPAESKKPWDYLKIVATIPGDQAFTTVAESKCSMMKK | not soluble
4 | GPGSMAHSLTWKLLSPEQTHECLTAPDVPSIRSVLKKIDEACDGKLIGAAKYNEGKVMIVLDMLAHLILFCKSRSMSPEKVSTLVGIVIKIHEESMSGGYTRAKSYHLMRDLMIKHSVPRPPFSCGVFTVRDAQEIDEYMLRSYYRHYKMYFYAFVPRQVMNVRCLDVTHIHQVPPVGLPSLSTAVVESEWRTKVEEQRREAEEQAMQEGEIASDAYEEERMRNRLLADPHYSDGIREQLECIKKEVSSKAVGRLDEIEMRLQEIEKKVAESFARSDSKQGRRKK | soluble
5 | MAIETEDIKYEESFIKNTRGFKLFTCRWLPTNREPRALVFLCHGYGMECSITMNSTARRLVKAGFAVYGMDYEGHGKSDGLSAYISNFDRLVDDVSTHYTAICEREENKWKMRFMLGESMGGAVVLLLGRKNPDFWDGAILVAPMCKIAEEMKPSPFVISILTKLISIIPKWKIIPSQDIIEISYKEPEIRKQVRENPLCSKGRPRLKTAYELLRISNDLEKRLQEVSLPFLVLHGDDDKVTDKAVSQELYKVALSADKTLKLYPGMWHGLLTGETPENIEIVFADVISWLEKRSDYGNDRFESELKQRNDRLNFKK | soluble
6 | GALPSHNKASFTDEEDEFILDVVRKNPTRRTTHTLYDEISHYVPNHTGNSIRHRFRVYLSKRLEYVYEVDKFGKLVRDDDGNLIKTKVLPPSIKRKFSADEDYTLAIAVKKQFYRDLFQIDPDTGRSLITDEDTPTAIARRNMTMDPNHVPGSEPNFAAYRTQSRRGPIAREFFKHFAEEHAAHTENAWRDRFRKFLLAYGIDDYISYYEAEKAQNREPEPMKNLTNRPKRPGVPTPGNYNSAAKR | soluble
7 | MSLGDEGWQTVIGLEIHAQIKTGKKLFSKASTSYGHVPNTNVDVHDAAFPGTLPVLDINAIRLSIMTALALNCQINPRSTFDRKHYFYHDIPASYQITQHYNPLAWNGHLEIREGDNGSKRTFNIGIKQLQVEQDTAKSQTVGDAVLVDLNRAGTGLMEIVTDPDMRSPEEAGAFVKKLQGLLRRVGSADGDMEKGNLRVDVNVSVHRPGMPFGTRCEIKNINSVRFLQAAIESERQRHIAHYCTSPLEPLAQETRGFNELTLQTYSLRSKEEATDYRYMPDHNLPAIIIDDGYLDSLWKNLPEMPWQSVERLVKTYGVTKRDAETLLGLDEYSAQGIAYFEEVVEQDKKIAKKATNWIAHELLGQLGKAIRPWTPTIVPAPLMHELVTAVESREITGTTGKAIVKHFVSLPESASLPPSFAELLAELGLTPSAASVEDLTETCKKAMNNQPKAVADFKKGNEKVVMRLVGEVMKLSGGKADAMKAKDILLDLLKDEGHHHHHH | not soluble
8 | GRMRIQEQSGARDKMVIGAGGLEDYIDKAMDDVAPNLKALVGAKLGARLISLAGGLKELAMLPSSTIQVLGAEKALFRHLRTGAKPPKHGVIYQYPAINRSPWWQRGKIARALAGKLAIAARVDYFSGEYIAEELKKELEARIKEIKEKYPRPPKRRKEERKGRKPWKE | soluble
9 | MRAVRLVEIGKPLSLQEIGVPKPKGPQVLIKVEAAGVCHSDVHMRQGRFGNLRIVEDLGVKLPVTLGHEIAGKIEEVGDEVVGYSKGDLVAVNPLQGEGNCYYCRIGEEHLCDSPRWLGINFDGAYAEYVIVPHYKYMYKLRRLNAVEAAPLTCSGITTYRAVRKASLDPTKTLLVVGAGGGLGTMAVQIAKAVSGATIIGVDVREEAVEAAKRAGADYVINASMQDPLAEIRRITESKGVDAVIDLNYSEKTLSVYPKALAKQGKYVMVGLFGADLHYHAPLITLSEIQFVGSLVGNQSDFLGIMRLAEAGKVKPMITKTMKLEEANEAIDNLENFKAIGRQVLIP | soluble
10 | LQASVNLFPTISVAPSADTSSERSIYKARFLENVAAAETEKQVALAQGRAETLAGAMPNEAGGHPDARQLWDSPETAPAARTPQSPAPCVLLRAQRSLAPEPKEPLIPASPKAEPIWELPTRAPRLSIGDLDFSDLGEDEDQDMLNVESVEAGKDI | not soluble
11 | MVIERSCMGDLDKNPAVKAMVVFRKAMRTIDAQVAPSYKNNGLTQTQFAVLDVLYAKGEMTISRLIASILATSGNMTVVIKNMERNGWIYRSPNPDDRRASVVGLTEVGKQLIQKALPDHIAMVEAAFSVMTEEEQLVLIDLLKKFKSL | not soluble
12 | MGSDKIHHHHHHMKVSTISIDLAKNVFQLLGMDKHAKQVFSKRLNRTQLSEFMSQQPVCDVVFEACYSSHYWGRKFLAMGHNVKLIPAQHVTPFVRGSKNDKNDAMAIYEANFRPNIRFVPIKTEAQQEILMLHRVRERLVKQRTACTNQIRGVLVDFGICFPQGHSAFERAMWDIINDESQRPIIKLMANDFWDEYQTVSTRLDRINRLIKQLVEQDPNGKILLSIPGVGPIIASAFAAAIGAGQAFNSAKELAVWLGLTPQQFASGNKSINGSITKRGDGYLRKQLIHGARTVVSHASKKNDDLNQWITQLRNRKSICTTVVATAHRLARLMWILLHKQVPYAPQYGAYQGISHEAN | not soluble
13 | MAHHHHHHMTRDDGTQVAQLLSEGKYNLPMFLRYLKASSMEGDQPDKSLLLGILLQSLARFQTSDFTACMCLVPSHVQDSPSVEKELNYIYGLENLLSCGLFARFWTQWSSVKEHLPESFHFEARVRTSILETICITMESIPTEKLATYLAVSPDQVQKVVHNAMKDSEDRDMKVMAYDSGSVVFHRNRFNYPQAGAAQDAIRFTDVSSVIHNDVPRRGAAVAADETRDVRARTWARMADE | soluble
14 | KKVCACPKILKPVCGSDGRTYANSCIARCNGVSIKSEGSCPTGI | soluble
15 | MGHHHHHHSHMSLFSGTIQNLENALSRADIKQKVITNNIANIDTPNYKAKKVSFQNLLDQESSRLEAIKTDYRHVDFSDTDSNYSIVASGDTSYQQNGNNVDVDKEMTELAQNQINYQALVERMNGKFNSLKTVLTGGK | not soluble
16 | MGSDKIHHHHHHMTIARRKSREVTIGNVRIGGDNPVVVQSMTNTDTRDVEQTVEQINSLAEAGCEIVRVAVLNDDAAWAIRPIKDQVTVPLVADIHFDHRLAVSALEAGVDALRINPGNIGGQKNVDKVVDAAKAHGSVIRVGVNGGSLERDLVEKYCGPTPEAMVESALRHVRMLEDRNFDNIKISLKSSSVTDTVTAYRLLGQQCEYPLHIGVTEAGTMLRGSVKSSVGIGILLWQGIGDTLRVSLTEDPVAEMAVAWEILRSLGLRFRGPEIISCPTCGRTEIDLISLAGEIERRLQNETQSFKVAVMGCVVNGPGEAREADIGIAGGRDKGIIFRHGEVIRTVKGGSNLLAAFNEELDKFLAERQGR | not soluble
17 | MGKKDKRSKLEGDDLAEAQQKGSFQLPSSNETAKLDASQWPLLLKNYDKLNVRTNHYTPHVEGVSPLKRDIKNYISSGFFNLDKPSNPSSHEVVSWIKRILRCEKTGHSGTLDPKVSGCLIVCIDRTTRLAKSQQGAGKEYICIFKLHEEVEDDRKVKQALEKLTGALFQRPPLISAVKRQLRIRTVYENKFIEYDPAQQMGIFNCICESGTYVRTICVHLGLILGCGGQMQELRRNRSGICDENENMVTMHDVLDAQYLLDTQKDESYMRHIVRPLEALLTQHKRVVVKDSCINAICYGAKILIPGILRYDDDIEVGKEIVIMSTKGEAICIAIAQMNTSTIASVDHGVVAKSKRVIMERDVYGRKWGLGPVASKKKQMVKDGLLDKFGKPNDTTPKSWAKEYVQTSTKKEVKKEETPDEEEEEAPKKKSKKSKKQESSDSDSD | not soluble
18 | MVSEQHAVDICLDKLRFYEVLSAHGFPVVPTALSLAELDDGDYVVKERYGAGATNIGLRLTKEEANRHAQKLEAPVFQPFIAGAEFSIDLYMTRTGRVKGAVARTREYVVNGESQITTTIRNEKLEDMCIAVASYLRLYGHAVMQVIIDYEGQFHLIECNPRFGGASTVSLEAGLDSFYWFFLESQGGDLDDYPFSRSMKEKRQIRYPADFVIDL | not soluble
19 | GPGSMKVGNRDYDPCVKVSLELESLLQHHFQQRQHSKRILKDRLRKAELEIAYLQQSVSAYSEELRVERLKFDTLQRTMEDSKRNHAAELMEQDKIIRDRMCNVDTQARLLVVKTEECERRAQCLQKQEEELLNREKELRFYQASFEAGIMPAQRQIEAERVRMLRAREKAEELLEEARISALATEERRKKLEALHNLEMQFFALEKEEATQRIQIMRQEIFGLVGLISFRRTHVSAAEGDAAKRIRLLEEELASKKEVFELREKEVYLRYQREEQRMRDERKRIISIKEAMRQDYRLVLEGIRLFGNEYSTEPDQLQVDALKDLEKLLFSALDDHQLEITKKL | soluble
20 | AATTVNGGTVHFKGEVVNAACAVDAGSVDQTVQLGQVRTASLAQEGATSSAVGFNIQLNDCDTNVASKAAVAFLGTAIDAGHTNVLALQSSAAGSATNVGVQILDRTGAALTLDGATFSSETTLNNGTNTIPFQARYFATGAATPGAANADATFKVQYQGGGGGGAATTVNGGTVHFKGEVVNA | soluble
21 | MSHHHHHHSMSKNILDMRNTVQIGIVVRDIEESLQNYAEFFGVEKPQWFWTDDYSKAHTKFNGRPTKARAKLAFFELGPLQLELIEPDENPSTWREFLDKNGEGIHHIAFVVKDMDRKVEELYRKGMKVIQKGDFEGGRYAYIDTLRALKVMIELLENY | soluble
22 | CFTPESTALLESGVRKPLGELSIGDRVLSMTANGQAVYSEVILFMDRNLEQMQNFVQLHTDGGAVLTVTPAHLVSVWQPESQKLTFVFADRIEEKNQVLVRDVETGELRPQRVVKVGSVRSKGVVAPLTREGTIVVNSVAASCYA | soluble
